From patent US20230151091A1 (NEW YORK UNIVERSITY, published 2023)
Changes are numbered by the printed parent chain.

Tests used:
[1] = biological target: T1, mECD: full-length extracellular region of mouse MuSK (E22 to T494) with C-terminal Avi- and His6-tags (mouse, UniProt Q61006 22-494, biotinylated in vitro using the BirA enzyme); assay: bead-binding assay, Fab format: biotinylated antigen on streptavidin beads, flow cytometry, 1:1 fit; average ± s.d., n=3
T1 construct: range 22-494; also called mouse ECD; not shown: Avi- and His6-tags
T1 sequence (looked up): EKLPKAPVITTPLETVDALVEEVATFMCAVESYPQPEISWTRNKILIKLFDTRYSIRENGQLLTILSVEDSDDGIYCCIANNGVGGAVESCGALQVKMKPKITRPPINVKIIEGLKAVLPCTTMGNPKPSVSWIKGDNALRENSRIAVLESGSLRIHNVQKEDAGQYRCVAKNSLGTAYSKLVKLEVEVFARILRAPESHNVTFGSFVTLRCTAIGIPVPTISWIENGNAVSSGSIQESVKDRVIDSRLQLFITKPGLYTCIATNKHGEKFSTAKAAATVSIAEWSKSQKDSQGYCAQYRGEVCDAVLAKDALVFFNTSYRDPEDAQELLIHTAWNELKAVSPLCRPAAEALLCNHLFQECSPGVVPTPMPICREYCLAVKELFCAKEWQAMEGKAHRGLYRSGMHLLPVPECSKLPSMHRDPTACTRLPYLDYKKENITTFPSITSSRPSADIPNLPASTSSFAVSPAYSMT

[2] = biological target: T2, hFz: Fz domain and C-terminal flanking sequence of human MuSK (K314-T495) with C-terminal Avi- and His6-tags (human, UniProt O15146 314-495, biotinylated in vitro using the BirA enzyme); assay: as above
T2 construct: also called human Fz; not shown: Avi- and His6-tags
T2 sequence: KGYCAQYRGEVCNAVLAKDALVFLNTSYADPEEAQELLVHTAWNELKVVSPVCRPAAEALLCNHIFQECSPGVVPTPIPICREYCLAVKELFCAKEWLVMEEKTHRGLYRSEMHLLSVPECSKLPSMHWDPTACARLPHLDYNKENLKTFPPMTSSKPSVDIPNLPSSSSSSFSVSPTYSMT

[3] = biological target: T3, mFz: Fz domain and C-terminal flanking sequence of mouse MuSK (D307 to T494) with C-terminal Avi- and … (mouse, UniProt Q61006 307-494, limits assumed, biotinylated in vitro using the BirA enzyme); assay: as above
T3 construct: also called mouse Fz; not shown: Avi- and His6-tags
T3 sequence (looked up): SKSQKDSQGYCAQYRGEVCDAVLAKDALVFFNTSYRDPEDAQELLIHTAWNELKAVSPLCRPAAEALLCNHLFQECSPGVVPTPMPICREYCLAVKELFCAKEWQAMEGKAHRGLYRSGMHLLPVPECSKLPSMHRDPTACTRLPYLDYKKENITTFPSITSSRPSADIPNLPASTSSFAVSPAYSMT

[4] = biological target: T4, hECD: full-length extracellular region of human MuSK (E22 to T495) with C-terminal Avi- and His6-tags (human, UniProt O15146 22-495, biotinylated in vitro using the BirA enzyme); assay: as above
T4 construct: also called human ECD; not shown: Avi- and His6-tags
T4 sequence: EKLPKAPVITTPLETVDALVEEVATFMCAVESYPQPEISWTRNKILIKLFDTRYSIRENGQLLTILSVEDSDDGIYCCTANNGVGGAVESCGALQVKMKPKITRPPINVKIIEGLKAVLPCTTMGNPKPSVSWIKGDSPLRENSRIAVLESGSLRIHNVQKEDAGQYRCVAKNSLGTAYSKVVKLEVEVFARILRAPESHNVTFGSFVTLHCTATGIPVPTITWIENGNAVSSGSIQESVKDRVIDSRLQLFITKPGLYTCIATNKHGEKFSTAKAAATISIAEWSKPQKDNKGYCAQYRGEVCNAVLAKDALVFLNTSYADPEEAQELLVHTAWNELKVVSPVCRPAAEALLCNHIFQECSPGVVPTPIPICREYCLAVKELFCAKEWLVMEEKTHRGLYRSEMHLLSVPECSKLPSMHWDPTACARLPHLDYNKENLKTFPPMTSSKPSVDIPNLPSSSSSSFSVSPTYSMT

[5] = biological target: T5, human MuSK (human, UniProt O15146 24-495); assay: Biacore T200, off rate at pH 5.5 against pH 7.4
T5 construct: Recombinant protein coated on ELISA plates (R&D Systems cat. 10189-MK) or on the Biacore chip; also called human muscle-specific tyrosine protein kinase; full length human MuSK
T5 sequence: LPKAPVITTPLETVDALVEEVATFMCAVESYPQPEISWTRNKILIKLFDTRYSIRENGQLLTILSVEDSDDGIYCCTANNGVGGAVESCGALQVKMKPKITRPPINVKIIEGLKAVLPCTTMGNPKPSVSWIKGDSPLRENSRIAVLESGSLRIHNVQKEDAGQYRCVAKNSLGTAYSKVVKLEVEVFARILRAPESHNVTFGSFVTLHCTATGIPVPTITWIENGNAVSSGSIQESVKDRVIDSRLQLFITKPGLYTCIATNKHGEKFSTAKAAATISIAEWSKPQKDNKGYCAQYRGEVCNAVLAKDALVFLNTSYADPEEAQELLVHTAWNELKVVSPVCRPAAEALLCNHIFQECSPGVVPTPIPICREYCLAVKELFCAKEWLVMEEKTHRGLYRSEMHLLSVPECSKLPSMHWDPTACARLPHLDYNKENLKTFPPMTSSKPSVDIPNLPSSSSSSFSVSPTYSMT
Procedure, shortened: (§1)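 Surface plasmon resonance was run with both human and mouse MuSK immobilized on the sensor chip. Fab association was always performed at pH 7.4 before the dissociation phase. Kinetic parameters were calculated from the binding curves.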

[6] = biological target: T6, mouse MuSK (mouse, UniProt Q61006 22-494, limits assumed); assay: Biacore T200, off rate at pH 5.5 against pH 7.4
T6 construct: Coated on ELISA plates or on the Biacore chip; also called full length mouse MuSK; mouse MuSK (in house produced in HEK293 cells)
T6 sequence (looked up): T1 sequence (looked up)
Procedure, shortened: as §1

B1: X2 Fab (Fab, V domains shown)
VH: EVQLVESGGGLVQPGGSLRLSCAASGFTVSSSSIHWVRQAPGKGLEWVASISSSYGSTSYADSVKGRFTISADTSKNTAYLQMNSLRAEDTAVYYCARSEGDRYVSGYMGMDYWGQGTLVTVSS
VL: DIQMTQSPSSLSASVGDRVTITCRASQSVSSAVAWYQQKPGKAPKLLIYSASSLYSGVPSRFSGSRSGTDFTLTISSLQPEDFATYYCQQSGVWLITFGQGTKVEIK
notes: Fab format
How did the Kd [1] turn out when B1 was run?
Its Kd is 0.7 nM.

What about the Kd [2] of the same binder?
The Kd was 0.53 nM.

What about the Kd [3] of the same binder?
Its Kd is 0.45 nM.

And the Kd [4]?
Its Kd is 0.86 nM.

What about the “Ratio pH 5.5/7.4 of off rate” value [5] of the same binder?
Its value is 0.6.

What about the “Ratio pH 5.5/7.4 of off rate” value [6] of the same binder?
The value was 1.

B2: X3 Fab (Fab, V domains shown)
VH: EVQLVESGGGLVQPGGSLRLSCAASGFTISSSSIHWVRQAPGKGLEWVASISSSSGYTYYADSVKGRFTISADTSKNTAYLQMNSLRAEDTAVYYCARSWYEMWMSGYFGFDYWGQGTLVTVSS
VL: B1 VL with G92S, V93S, W94S
notes: Fab format
Which Kd [1] does the source give for B2 here?
Its Kd is 0.4 nM.

What about the Kd [2] of the same binder?
Its Kd is 0.11 nM.

What about the Kd [3] of the same binder?
Its Kd is 0.29 nM.

And the Kd [4]?
Its Kd is 0.16 nM.

What about the “Ratio pH 5.5/7.4 of off rate” value [5] of the same binder?
The value was 3.5.

And the “Ratio pH 5.5/7.4 of off rate” value [6]?
Its value is 4.4.
